Measured values from PMC9477737, “Structural insights into auxin recognition and efflux by Arabidopsis PIN1” (Nature, 2022).

B1: Sybody-21 (synthetic nanobody selected against PIN1) (VHH)
VHH: QVQLVESGGGLVQAGGSLRLSCAASGFPVNISWMEWYRQVPGKEREWVAAIQSTGSYTWYADSVKGRFTISRDNAKNTVYLQMNSLKPEDTAVYYCRVKVGAYYRGQGTQVTVSA
notes: Selected by ribosome display and phage display from the Concave, Loop or Convex sybody libraries; The BLI methods speak of a His-tagged sybody; How the purified Sybody-21 was made is not described; also called the sybody
B2: Arabidopsis thaliana PIN1 (PIN-FORMED 1 auxin transporter), full length, N-terminal Flag tag (natural protein, A. thaliana, UniProt Q9C6B8 1-622, looked up)
chain: MITAADFYHVMTAMVPLYVAMILAYGSVKWWKIFTPDQCSGINRFVALFAVPLLSFHFIAANNPYAMNLRFLAADSLQKVIVLSLLFLWCKLSRNGSLDWTITLFSLSTLPNTLVMGIPLLKGMYGNFSGDLMVQIVVLQCIIWYTLMLFLFEYRGAKLLISEQFPDTAGSIVSIHVDSDIMSLDGRQPLETEAEIKEDGKLHVTVRRSNASRSDIYSRRSQGLSATPRPSNLTNAEIYSLQSSRNPTPRGSSFNHTDFYSMMASGGGRNSNFGPGEAVFGSKGPTPRPSNYEEDGGPAKPTAAGTAAGAGRFHYQSGGSGGGGGAHYPAPNPGMFSPNTGGGGGTAAKGNAPVVGGKRQDGNGRDLHMFVWSSSASPVSDVFGGGGGNHHADYSTATNDHQKDVKISVPQGNSNDNQYVEREEFSFGNKDDDSKVLATDGGNNISNKTTQAKVMPPTSVMTRLILIMVWRKLIRNPNSYSSLFGITWSLISFKWNIEMPALIAKSISILSDAGLGMAMFSLGLFMALNPRIIACGNRRAAFAAAMRFVVGPAVMLVASYAVGLRGVLLHVAIIQAALPQGIVPFVFAKEYNVHPDILSTAVIFGMLIALPITLLYYILLGL
notes: PIN1, Arabidopsis thaliana, UniProt Q9C6B8, full length; most of the hydrophilic loop is not visible in the cryo-EM map; Forms a homodimer in the cryo-EM structures; A monomeric class was also seen in the apo sample; also called AtPIN1; WT PIN1

Tests used:
[1] = biological target: T1, Arabidopsis thaliana PIN1 (PIN-FORMED 1 auxin transporter), full length, N-terminal Flag tag (A. thaliana, UniProt Q9C6B8); assay: cryo-EM structure; purified PIN1 and sybody-21 mixed at a molar ratio of ~1:3, gel filtration in 25 mM HEPES pH 7.4, 150 mM NaCl, 0.02% GDN; apo, IAA-bound (10 mM IAA) and NPA-bound (100 uM NPA) samples; details: both partners purified
T1 construct: PIN1, Arabidopsis thaliana, UniProt Q9C6B8, full length; most of the hydrophilic loop is not visible in the cryo-EM map; Forms a homodimer in the cryo-EM structures; A monomeric class was also seen in the apo sample; also called AtPIN1; WT PIN1

[2] = biological target: the molecule itself; assay: as above

Row | Binder | binding result [1] | stoichiometry N [2]
1 | B1 | binds | 
2 | B2 |  | 2
